# Columns and labels:
# LNCaP细胞上表达的PSMA = target: T1, LNCaP细胞上表达的PSMA (human, UniProt Q04609 1-750); assay: Scatchard analysis, 111In-DOTA-labelled antibody binding to a fixed number of LNCaP cells
# T1 construct: whole, on cells; Endogenous PSMA of LNCaP cells; also used for the LNCaP membrane-fraction ELISA; also called PSMA on LNCaP cells; LNCaP细胞膜
# 细菌表达的含有PSMA氨基酸1-173的融合蛋白 = target: T2, 细菌表达的含有PSMA氨基酸1-173的融合蛋白 (human, UniProt Q04609 1-173); assay: solid-phase ELISA on bacterially expressed PSMA fragment fusion proteins
# T2 construct: Bacterially expressed fusion protein
# T2 sequence (Q04609 1-173): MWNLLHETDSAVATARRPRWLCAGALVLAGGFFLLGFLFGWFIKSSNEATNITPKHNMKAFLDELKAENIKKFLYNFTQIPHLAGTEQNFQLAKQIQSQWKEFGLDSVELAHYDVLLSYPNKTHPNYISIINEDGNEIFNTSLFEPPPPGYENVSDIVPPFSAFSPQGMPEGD
# [1] = target: T3, 细菌表达的含有PSMA氨基酸134-437的融合蛋白 (human, UniProt Q04609 134-437); assay: as above
# T3 construct: Bacterially expressed fusion protein
# T3 sequence (Q04609 134-437): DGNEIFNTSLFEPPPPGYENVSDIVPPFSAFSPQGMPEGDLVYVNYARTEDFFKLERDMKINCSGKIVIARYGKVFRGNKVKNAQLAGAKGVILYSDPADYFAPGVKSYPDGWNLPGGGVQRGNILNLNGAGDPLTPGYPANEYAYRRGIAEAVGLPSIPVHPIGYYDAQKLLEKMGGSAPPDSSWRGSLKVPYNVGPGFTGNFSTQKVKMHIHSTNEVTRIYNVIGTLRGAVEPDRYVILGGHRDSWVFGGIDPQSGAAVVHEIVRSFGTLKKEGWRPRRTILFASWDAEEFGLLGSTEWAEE
# [2] = target: T4, 细菌表达的含有PSMA氨基酸438-750的融合蛋白 (human, UniProt Q04609 438-750); assay: as above
# T4 construct: range 438-750; Bacterially expressed fusion protein; also called PSMA 438-750 fusion protein
# T4 sequence (Q04609 438-750): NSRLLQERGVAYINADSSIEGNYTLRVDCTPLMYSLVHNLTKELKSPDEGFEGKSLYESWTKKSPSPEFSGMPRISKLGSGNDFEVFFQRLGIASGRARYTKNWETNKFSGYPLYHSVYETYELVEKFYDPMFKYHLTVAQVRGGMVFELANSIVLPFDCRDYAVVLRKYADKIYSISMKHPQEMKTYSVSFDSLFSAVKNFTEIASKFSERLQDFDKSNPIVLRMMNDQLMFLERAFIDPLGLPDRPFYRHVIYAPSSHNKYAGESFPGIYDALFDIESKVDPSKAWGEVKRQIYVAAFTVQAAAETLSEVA
# T1 sequence (Q04609 whole entry): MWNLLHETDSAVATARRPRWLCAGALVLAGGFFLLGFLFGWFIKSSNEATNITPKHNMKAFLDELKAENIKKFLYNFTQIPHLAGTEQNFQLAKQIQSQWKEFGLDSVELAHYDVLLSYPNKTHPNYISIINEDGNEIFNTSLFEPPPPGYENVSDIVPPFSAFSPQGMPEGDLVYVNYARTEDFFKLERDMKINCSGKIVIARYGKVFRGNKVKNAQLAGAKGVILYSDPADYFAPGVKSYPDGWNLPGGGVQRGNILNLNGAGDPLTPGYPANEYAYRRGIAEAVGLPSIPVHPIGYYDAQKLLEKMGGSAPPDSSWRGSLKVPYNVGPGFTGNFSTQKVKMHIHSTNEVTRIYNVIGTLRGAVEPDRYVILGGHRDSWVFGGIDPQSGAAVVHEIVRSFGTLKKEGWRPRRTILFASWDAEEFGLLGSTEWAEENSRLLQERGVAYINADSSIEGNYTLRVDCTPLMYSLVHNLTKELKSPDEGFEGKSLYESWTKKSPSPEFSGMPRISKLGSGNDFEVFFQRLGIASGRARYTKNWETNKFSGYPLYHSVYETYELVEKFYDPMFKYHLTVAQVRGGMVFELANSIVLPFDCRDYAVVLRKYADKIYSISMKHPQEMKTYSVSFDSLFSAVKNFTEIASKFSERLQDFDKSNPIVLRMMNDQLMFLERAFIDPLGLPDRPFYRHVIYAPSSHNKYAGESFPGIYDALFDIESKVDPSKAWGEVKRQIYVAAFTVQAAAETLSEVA
Binder,Kd (LNCaP细胞上表达的PSMA) [nM],binding result (细菌表达的含有PSMA氨基酸1-173的融合蛋白),binding result [1],binding result [2]
"DOTA-标记的4A3 (antibody, IgG1, V domains shown, DOTA coupled through one carboxyl group to protein amino groups, sites not stated; 111In chelated in the Scatchard study, 4A3 IgG1 kappa conjugated with DOTA; also called DOTA-4A3; 111 In-DOTA-标记抗体 4A3) VH: EVQLVQSGAEVKKPGESLKISCKGSGYSFTSYWIGWARQMPGKGLEWMGIIYPGDSDTRYSPSFQGQVTISADKSISTAYLQWSSLKASDTAMYYCSAANSSHWYFDLWGRGTLVTVSS VL: EIVLTQSPATLSLSPGERATLSCRASQSVSSYLAWFQQKPGQAPRLLIYDASNRATGIPARFSGSGSGTDFTLTISSLEPEDFAVYYCQQRSNWLMYTFGQGTKLEIK",0.5,,,
"人单克隆抗体(HuMAb)4A3 (antibody, V domains shown, Human IgG1 kappa (γ1,κ) from a hybridoma of HuMAb mouse #17018) VH: EVQLVQSGAEVKKPGESLKISCKGSGYSFTSYWIGWARQMPGKGLEWMGIIYPGDSDTRYSPSFQGQVTISADKSISTAYLQWSSLKASDTAMYYCSAANSSHWYFDLWGRGTLVTVSS VL: EIVLTQSPATLSLSPGERATLSCRASQSVSSYLAWFQQKPGQAPRLLIYDASNRATGIPARFSGSGSGTDFTLTISSLEPEDFAVYYCQQRSNWLMYTFGQGTKLEIK",,no binding,no binding,no binding

# Other lines, results leading:
Kd (LNCaP细胞上表达的PSMA) [nM],binding result (细菌表达的含有PSMA氨基酸1-173的融合蛋白),binding result [1],binding result [2],Binder
,no binding,no binding,no binding,"人单克隆抗体(HuMAb)7F12 (antibody, V domains shown, Human IgG1 kappa (γ1,κ) from a hybridoma of HuMAb mouse #17018) VH: AVQLVQSGAEVKKPGESLKISCKGSGYSFTSFWIGWARQMPGKGLEWMGIIYPGDSDTRYSPSFQGQVTISADKSISTAYLQWSSLKASDTAMYYCATANSSFWNFDLWGRGTLVTVSS VL: EIVLTQSPATLSLSPGERATLSCRASQSVSSYLAWYQQKPGQAPRLLIYDASNRATGIPARFSGSGSGTDFTLTISSLEPEDFAVYYCQQRSNWLMYTFGQGTKLEIK"
0.5,,,,"DOTA-标记的7F12 (antibody, IgG1, V domains shown, DOTA coupled through one carboxyl group to protein amino groups, sites not stated; 111In chelated in the Scatchard study, 7F12 IgG1 kappa conjugated with DOTA; also called DOTA-7F12; 111 In-DOTA-标记抗体 7F12) VH: AVQLVQSGAEVKKPGESLKISCKGSGYSFTSFWIGWARQMPGKGLEWMGIIYPGDSDTRYSPSFQGQVTISADKSISTAYLQWSSLKASDTAMYYCATANSSFWNFDLWGRGTLVTVSS VL: EIVLTQSPATLSLSPGERATLSCRASQSVSSYLAWYQQKPGQAPRLLIYDASNRATGIPARFSGSGSGTDFTLTISSLEPEDFAVYYCQQRSNWLMYTFGQGTKLEIK"
